No end group written: not given here.

Results on eight molecules are retold here after US20050059087A1 (Amgen, published 2005).

In experiment [1] the target is T1, EGFRvIII, full length, expressed by transfected cells (NR6 M, H1477, 300.19/EGFRvIII) (human, UniProt P00533 298-1210). Put plainly: cell-based or functional assay.
Experiment [2] has as its target T2, Pep-3, NH2-LEEKKGNYVVTDHG-OH (human).
T2 construct: Free peptide used in Biacore and KinExA (MW 1590 Da)
T2 peptide: H-LEEKKGNYVVTDHG-OH
Put plainly: Biacore 2000 SPR, mAb immobilised, pep-3 analyte, 23 C. The protocol: Standard EDC/NHS and carbohydrate coupling was used to covalently immobilize mAbs to a CM5 sensor chip. To minimize mass transport and crowding mAbs were immobilized at levels that gave a maximum antigen binding response (Rₘₐₓ) of no more than 50-100 RU. A reference flow cell on each chip was activated and blocked with no mAb immobilization to serve as a control.
All Biacore kinetic experiments were conducted at 23° C. […] Antigen samples were randomly injected over the biosensor surface in triplicate at 100 μL/min. Several buffer blanks were injected intermittently over the course of an experiment for double referencing. Each pep-3 concentration and blank were injected for 90 seconds. Dissociation was followed for 13 to 180 minutes.
All Biacore sensorgrams were processed using Scrubber software (Version 1.1f, BioLogic Software, Australia). Sensorgrams were first zeroed on the y-axis and then x-aligned at the beginning of the injection. Bulk refractive index changes were removed by subtracting the reference flow cell responses. The average response of all blank injections was subtracted from all analyte and blank sensorgrams to remove systematic artifacts between the experimental and reference flow cells. CLAMP biosensor data analysis software (Version 3.40, BioLogic Software, Australia) was used to determine kₐ and kd from the processed data sets. Data from all flow cells were globally fit to a 1:1 bimolecular binding model that included a mass transport term. […] The KD was calculated from the quotient kd/kₐ.
For orientation: SPR reads the build-up and loss of mass on a sensor chip optically.

Experiment [3] deals with T3, EGFRvIII peptide-OVA (PEP3 14-mer conjugated to ovalbumin) (human, also: conjugated to OVA, chemistry not given here).
T3 construct: also called VIII-pep-OVA; muEGFr
T3 peptide: LEEKKGNYVVTDHC
The experiment is described as follows: XenoMax screening.

The target in experiment [4] is T1, EGFRvIII, full length, expressed by …. The experiment is described as follows: FACS on NR6 M cells, antibody at 0.25 µg/ml with SS Alexa anti-human IgG Fab, 37° C. for 1 hr, no glutathione (total cell-associated fluorescence). The protocol: XenoMax derived IgG1 recombinant antibodies were expressed, purified and quantitated as described previously. Antibodies were further assayed for their ability to internalize the EGFRvIII receptor in NR6 M cells. […] The cells were washed with cold 10% FCS in PBS and secondary antibody (SS Alexa antihuman IgG Fab) at 3 μg/ml Fab was added and incubated for 7 mins on ice. The cells were washed with cold 10% FCS in PBS once and then resuspended in cold media. Next, two sets of the triplicate were incubated at 37° C. and the remaining set was incubated at 4° C. for 1 hr. After that the cells incubated at 4° C. and one set of the cells incubated at 37° C. were treated with glutathione (as previously mentioned) for 1 hr on ice. Then the cells were washed and resuspended in 100 μl of cold 1% FCS in PBS and analyzed by FACS. The % internalization was calculated from the geometric mean obtained from the FACS analysis [(mean at 37° C. with glutathione—mean at 4° C. with glutathione)/(mean at 37° C. without glutathione—mean at 4 C with glutathione)].

The target of experiment [5] is T2, Pep-3, NH2-LEEKKGNYVVTDHG-OH. The experiment is described as follows: KinExA, pep3. The protocol:
All KinExA experiments were conducted at room temperature (˜23° C.). For all equilibrium experiments, antigen was serially diluted into solutions having a constant mAb binding site concentration. For the first 10 titration points the dilutions were 2-fold and the 11th and 12th serial dilutions were 10-fold. The sample flow rate for all experiments was 0.25 mL/min and the labeling antibody flow rate was 0.5 mL/min. […] A sample volume of 250 μL was analyzed for the antibody-controlled experiment. Two or three replicates of each sample were measured for all equilibrium experiments. The equilibrium titration data were fit in a dual curve analysis to a 1:1 binding model using KinExA software (Version 2.4, Sapidyne Instruments).
A general note: A kinetic exclusion assay measures how much of one partner remains free in solution.

The target is the same in experiment [6]. The experiment is described as follows: Biacore 2000 SPR, mAb immobilised, pep-3 analyte; 95% confidence interval in parentheses. From the text:
(§1) Two CM5 sensor chips were used in total to immobilize both mAbs. […] Biacore 2000 optical biosensors were used for all studies.
(§2) Next, pep-3 was flowed across the mAb immobilized biosensor surfaces. […] Blank injections were run every sixth sample throughout the injection series for double referencing purposes.

Experiment [7] has the same target. The experiment is described as follows: KinExA, pep3; KinExA (solution equilibrium), pep3; not Biacore.
The target is the same in experiment [8]. Put plainly: Biacore 2000 SPR, mAb immobilised, pep-3 analyte; 95% confidence interval in parentheses.
Text: as §1, §2

Experiment [9] addresses T4, wild type EGFR expressed by cells (NR6 Wt, A431, A549, H80, SF-539, A498, SKRC-52) (human, UniProt P00533 25-1210).
T4 construct: Also used here for Western blots of cell lysates; also called wtEGFR; Wt receptor
The experiment is described as follows: FACS on H80 glioblastoma cells (wild type EGFR only), 30 min on ice, PE goat anti-human IgG; filled histogram = irrelevant IgG. As to the method: The specificity of the purified antibodies was ascertained by performing FACS analysis on a panel of cell lines. H80, a human glioblastoma line, and H1477 (H80-EGFRvIII) that expresses high levels of EGFRvIII, A431, a human epidemoid carcinoma line, and A549, a human lung carcinoma cell line were used as the cell lines. All cell lines were from Dr. Bigner except A431 and A549, which were from ATCC (Rockville, Md., U.S.A.). Cells were incubated on ice with 10 μg/ml of the respective antibody for 30 min., washed in FACS buffer and subsequently incubated with PE-conjugated goat anti-human IgG from Jackson ImmunoResearch (West Grove, Pa., U.S.A.).

Experiment [10] deals with T2, Pep-3, NH2-LEEKKGNYVVTDHG-OH. The experiment is described as follows: Biacore SPR, mAb immobilised, Pep-3 analyte (single experiment of Example 25).
The target of experiment [11] is EGFrVIII antigen (ELISA antigen of Examples 15, 17 and 21; form not stated) (human, UniProt P00533 298-645, limits assumed). Put plainly: ELISA, 293 cell supernatant on EGFrVIII antigen. As to the method: Each mutated chain was then transfected with the complementary wild-type chain in 293 cells. Supernatants were then tested for expression and secretion of human IgG antibodies, and for binding to EGFrVIII antigen.
(An ELISA detects its analyte on a solid surface through an enzyme-linked reagent.)

Experiment [12] concerns the target T2, Pep-3, NH2-LEEKKGNYVVTDHG-OH. Put plainly: Biacore 2000 SPR, mAb immobilised, pep-3 analyte (range between runs).
Text: as §1, §2

In experiment [13] the target is T4, wild type EGFR expressed by cells (NR6 …). The experiment is described as follows: FACS, 10 ug/ml antibody, H80, A431 and A549 cells.
For experiment [14], the target named is T5, EGFRvIII-rabbit Fc fusion protein (human; rabbit, UniProt P00533 298-645).
T5 construct: made in 293F cells; also called EGFRvIII-RbFc; EGFRvIII-Rab Ig Fc fusion protein; not shown: rabbit IgG Hinge-CH2-CH3 (721 bp fragment)
Put plainly: ELISA, minilipofection supernatant titrated 1:2 on EGFRvIII-Rab Ig Fc fusion protein (1.5 ug/ml). The protocol:
The secretion ELISA tests were performed as follows. […] The plates were washed five times with dH₂O. Recombinant antibodies were titrated 1:2 for 7 wells from the undiluted minilipofection supernatant. The plates were washed five times with dH₂O. A goat anti-human IgG Fc-specific HRP-conjugated antibody was added at a final concentration of 1 μg/mL for 1 hour at RT for the secretion plates and binding plates detected with 1 μg/ml Rb anti Hu Fc for 1 hour at room temperature. The plates were washed five times with dH₂O. The plates were developed with the addition of TMB for 30 minutes and the ELISA was stopped by the addition of 1 M phosphoric acid. Each ELISA plate was analyzed to determine the optical density of each well at 450 nm.

B1: AB-EGFRvIII-XG1-095 (antibody, V domains shown)
VH: QVQLQESGPFLVKPSQTLSLTCTVSGGSISSGGYYWSWIRQHPGKGLEWIGFIYYRGNTYYNPSLKSRVTISVDTSKNQFSLKLSSVTAADTAVYYCARDGYCSRTGCYGGWFDPWGQGTLVTVSP
VL: DIVMTQTPLSSPVTLGQPASISCRSSQSLIHTDGNIYLSWLQQRPGQPPRLLIYKISNRFSGVPDRFSGSGAGTDFTLKISRVEAEDVGVYYCMQGTQFPITFGQGTRLEIK
notes: also called SC95; sc95
What is called Kd is the concentration at which binding is half-saturated. What is called koff is a measure of how fast the partners let go of each other. By kon is commonly meant a measure of how fast the partners come together. Regarding B1, in [1], the “% internalization” value turned out to be 72.4%; the “FACS Geometric mean, With glutathione 4° C.” value is 5.13 geometric mean; the “FACS Geometric mean, With glutathione 37° C.” value worked out at 17.8 geometric mean. In [2], binding was put at a Kd of 66 nM, the koff is 0.0099 s⁻¹ and the kon was 149000 M⁻¹ s⁻¹. Besides, the binding result in experiment [3] is “binds”. The “FACS Geometric mean (without glutathione, 37° C.)” value in experiment [4] worked out at 22.6 geometric mean.

B2: SC-EGFRvIII-XG1-131 (antibody, V domains shown)
VH: QVQLVESGGGVVQSGRSLRLSCAASGFTFRNYGMHWVRQAPGKGLEWVAVIWYDGSDKYYADSVRGRFTISRDNSKNTLYLQMNSLRAEDTAVYYCARDGYDILTGNPRDFDYWGQGTLVTVSS
VL: DTVMTQTPLSSHVTLGQPASISCRSSQSLVHSDGNTYLSWLQQRPGQPPRLLIYRISRRFSGVPDRFSGSGAGTDFTLEISRVEAEDVGVYYCMQSTHVPWTFGQGTKVEIK
notes: also called SC131; sc131
With B2, binding in experiment [5] was characterised by a dissociation constant (Kd) of 0.05 pM. In experiment [3], the binding result is reported as “binds”.

B3: AB-EGFRvIII-XG1K-13.1.2 (antibody, V domains shown)
VH: QVQLVESGGGVVQPGRSLRLSCAASGFTFSSYGMHWVRQAPGKGLEWVAVIWYDGSNKYYVDSVKGRFTISRDNSKNTLYLQMNSLRAEDTAVYYCARDGWQQLAPFDYWGQGTLVTVSS
VL: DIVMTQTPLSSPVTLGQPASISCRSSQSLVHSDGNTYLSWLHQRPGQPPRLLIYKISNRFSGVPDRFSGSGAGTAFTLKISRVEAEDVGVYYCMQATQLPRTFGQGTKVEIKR
As to B3, in [1], the “% internalization” value worked out at 82.5%; the “FACS Geometric mean, With glutathione 4° C.” value was determined as 5.38 geometric mean; the “FACS Geometric mean, With glutathione 37° C.” value is 19.2 geometric mean. Also, in experiment [6], the Kd is 75 nM, the koff was determined as 0.016 s⁻¹ and the on-rate constant (kon) was found to be 210000 M⁻¹ s⁻¹. Moreover, in experiment [7], the Kd is 0.025 nM. Further, in [8], the dissociation constant (Kd) stood at 75 nM, the koff was 0.016 s⁻¹ and the kon turned out to be 210000 M⁻¹ s⁻¹. Besides, in experiment [9], the binding result is reported as “no binding (tested: 10 µg/ml)”. In experiment [10], this molecule yielded a Kd of 67 nM. The “FACS Geometric mean (without glutathione, 37° C.)” value in experiment [4] stood at 22.1 geometric mean.

B4: 13.1.2 variant Arg101Glu (antibody, V domains shown)
VH: QVQLVESGGGVVQPGRSLRLSCAASGFTFSSYGMHWVRQAPGKGLEWVAVIWYDGSNKYYVDSVKGRFTISRDNSKNTLYLQMNSLRAEDTAVYYCARDGWQQLAPFDYWGQGTLVTVSS
VL: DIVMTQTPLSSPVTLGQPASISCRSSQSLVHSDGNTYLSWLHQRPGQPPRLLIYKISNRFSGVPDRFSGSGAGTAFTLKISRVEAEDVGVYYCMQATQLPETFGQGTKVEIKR
notes: Mutated chain co-transfected with the complementary wild-type chain in 293 cells; supernatant tested
Regarding B4, the binding result in experiment [11] is “no binding”.

B5: 13.1.2 variant Arg101Gln (antibody, V domains shown)
VH: QVQLVESGGGVVQPGRSLRLSCAASGFTFSSYGMHWVRQAPGKGLEWVAVIWYDGSNKYYVDSVKGRFTISRDNSKNTLYLQMNSLRAEDTAVYYCARDGWQQLAPFDYWGQGTLVTVSS
VL: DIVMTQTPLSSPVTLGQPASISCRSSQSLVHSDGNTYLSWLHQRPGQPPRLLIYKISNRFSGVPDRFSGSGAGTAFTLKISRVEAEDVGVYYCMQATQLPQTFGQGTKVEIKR
notes: as for B4
Turning to B5, the binding result in [11] is “no binding”.

B6: 13.1.2 variant L99T-5.3 (antibody, V domains shown)
VH: QVQLVESGGGVVQPGRSLRLSCAASGFTFSSYGMHWVRQAPGKGLEWVAVIWYDGSNKYYVDSVKGRFTISRDNSKNTLYLQMNSLRAEDTAVYYCARDGWQQLAPFDYWGQGTLVTVSS
VL: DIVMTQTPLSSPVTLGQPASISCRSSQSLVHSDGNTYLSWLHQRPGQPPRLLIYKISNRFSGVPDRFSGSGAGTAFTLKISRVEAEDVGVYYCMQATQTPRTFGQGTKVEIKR
notes: also called Leu99Thr; 99Thr
B6: in experiment [8], the Kd worked out at 60 nM, the koff came to 0.013 s⁻¹ and the kon is 216000 M⁻¹ s⁻¹. The Kd in [12] fell in the range of 54 to 70 nM.

B7: 13.1.2 variant Arg101Asp (antibody, V domains shown)
VH: QVQLVESGGGVVQPGRSLRLSCAASGFTFSSYGMHWVRQAPGKGLEWVAVIWYDGSNKYYVDSVKGRFTISRDNSKNTLYLQMNSLRAEDTAVYYCARDGWQQLAPFDYWGQGTLVTVSS
VL: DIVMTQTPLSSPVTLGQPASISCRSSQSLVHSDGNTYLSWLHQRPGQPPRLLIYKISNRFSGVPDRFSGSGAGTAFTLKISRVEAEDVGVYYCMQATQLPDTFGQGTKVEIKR
notes: as for B4
As for B7, the binding result in experiment [11] is on record as “no binding”.

B8: SC-EGFRvIII-XG1-139 (antibody, V domains shown)
VH: EVQVLESGGGLVQPGGSLRLSCAASGFTFSSYAMSWVRQAPGKGLEWVSAISGSGGSTNYADSVKGRFTISRDNSKNTLYLQMNSLRAEDTAVYYCAGSSGWSEYWGQGTLVTVSS
VL: DIQMTQSPSSLSASVGDRVTITCRASQGIRNNLAWYQQKPGKAPKRLIYAASNLQSGVPSRFTGSGSGTEFTLIVSSLQPEDFATYYCLQHHSYPLTSGGGTKVEIK
notes: also called SC139; sc139
B8: in [1], the “% internalization” value was found to be 80.8%; the “FACS Geometric mean, With glutathione 4° C.” value turned out to be 4.88 geometric mean; the “FACS Geometric mean, With glutathione 37° C.” value came out at 19.2 geometric mean. In experiment [2], binding was put at a Kd of 290 nM, the koff came out at 0.00298 s⁻¹ and the kon came out at 10300 M⁻¹ s⁻¹. Also, in experiment [3], the binding result is on record as “binds”. Moreover, the “staining relative to ABX-EGF (E7.6.3)” value in experiment [13] was determined as 10%. Further, in experiment [14], the “Titer, antigen binding” value is > 64 reciprocal dilution. In addition, the “FACS Geometric mean (without glutathione, 37° C.)” value in experiment [4] was 22.6 geometric mean.
